Reference: patent US20160311913A1 (Amgen, published 2016)

Target: human CGRP receptor (human, UniProt Q16602 23-461; O60894 27-148)
Test: cell-based or functional assay

human CGRP receptor, sequence (Q16602 23-461 limits assumed, chain 1 of 2): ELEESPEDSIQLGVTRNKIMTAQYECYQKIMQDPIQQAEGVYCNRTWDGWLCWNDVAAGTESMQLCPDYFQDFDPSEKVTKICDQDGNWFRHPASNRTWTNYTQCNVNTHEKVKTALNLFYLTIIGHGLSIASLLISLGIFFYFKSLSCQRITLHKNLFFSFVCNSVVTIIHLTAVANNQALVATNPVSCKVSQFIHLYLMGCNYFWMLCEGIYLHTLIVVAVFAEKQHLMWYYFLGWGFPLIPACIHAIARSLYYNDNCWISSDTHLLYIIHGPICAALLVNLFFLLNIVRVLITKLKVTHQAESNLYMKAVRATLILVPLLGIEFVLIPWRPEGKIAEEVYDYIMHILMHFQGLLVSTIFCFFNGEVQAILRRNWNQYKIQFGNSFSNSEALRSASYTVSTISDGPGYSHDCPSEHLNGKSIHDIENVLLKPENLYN
human CGRP receptor, sequence (O60894 27-148 limits assumed, chain 2 of 2): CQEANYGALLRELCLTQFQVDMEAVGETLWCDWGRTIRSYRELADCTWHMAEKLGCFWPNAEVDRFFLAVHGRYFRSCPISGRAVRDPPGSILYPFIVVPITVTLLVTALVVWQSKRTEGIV

- serum AMG 334 concentration associated with the half maximal effect (EC50) on capsaicin-induced DBF: 0.286 µg/mL
- serum AMG 334 concentration for 50% of maximal inhibition of capsaicin-induced dermal blood flow (EC50): 0.218 µg/mL
B1: AMG 334 (antibody, human IgG2, lambda, V domains shown)
VH: QVQLVESGGGVVQPGRSLRLSCAASGFTFSSFGMHWVRQAPGKGLEWVAVISFDGSIKYSVDSVKGRFTISRDNSKNTLFLQMNSLRAEDTAVYYCARDRLNYYDSSGYYHYKYYGMAVWGQGTTVTVSS
VL: QSVLTQPPSVSAAPGQKVTISCSGSSSNIGNNYVSWYQQLPGTAPKLLIYDNNKRPSGIPDRFSGSKSGTSTTLGITGLQTGDEADYYCGTWDSRLSAVVFGGGTKLTVLG
